Assay results taken from patent US8209131B2, “Therapeutic heparins and their binding to interleukins 4 and 5 and PECAM-1” (Curtin University of Technology, priority 2004, dated 2012).
Residue numbers refer to the chain shown, from its start. Names may count otherwise.

B1: K77A: IL-4 mutant, baculovirus expressed (protein)
chain: HKCDITLQEIIKTLNSLTEQKTLCTELTVTDIFAASKNTTEKETFCRAATVLRQFYSHHEKDTRCLGATAQQFHRHAQLIRFLKRLDRNLWGLAGLNSCPVKEANQSTLENFLERLKTIMREKYSKCSS
B2: K77A/R81A: IL-4 double mutant (protein)
chain: B1 chain with R81A
B3: K12A: IL-4 mutant, baculovirus expressed (protein)
chain: B1 chain with K12A, A77K
B4: K21A: IL-4 mutant, baculovirus expressed (protein)
chain: B1 chain with K21A, A77K
B5: R121A: IL-4 mutant, baculovirus expressed (protein)
chain: B1 chain with A77K, R121A
B6: K77A/K84A: IL-4 double mutant (protein)
chain: B1 chain with K84A
B7: K77A/R53A: IL-4 double mutant (protein)
chain: B1 chain with R53A

Tested on: TF1.8 cells
Assay: TF1.8 bioassay of IL-4 mutants (support of proliferation)
Assay type: cell-based, human
Conditions: IL-4 wt and mutants, TF1.8 cells
Procedure: TF-1.8 cells have been transfected with the firefly luciferase gene contained in the expression vector, pPGK-puromycin-luciferase (Coombe et al., 1998, Supra). The positive transfectants are cloned to produce a line with good luciferase expression. The proliferation assays are carried out in 96-well microplates suitable for such assays Falcon). The wells are flat bottomed, with white sides and a clear bottom. Cells are washed to remove any cytokine in the growth medium and then resuspended in RPMI/5% w/v FCS. The cells are counted with a Coulter Multisizer (Coulter Electronics, England) and routinely 2.5×10^4 cells are added to microplate wells that contain either no IL-4 (negative control) or various dilutions of IL-4. When the effect of HLGAGs, chondroitin sulfate C, or the heparin fractions of a particular length, or heparin fragments of a particular length and structure is to be measured, the wells also contain various concentrations of these molecules.
The cells proliferate for 48 hours at 37° C. in a humidified atmosphere, after which the luciferase activity is measured by the addition of 50 μl of luciferase substrate buffer (50 mm Tris-HCl, pH 7.8, 15 mM MgSO4, 33.3 mM DTT, 0.1 mM EDTA, 0.5 mM Na-luciferin, 0.5 mM ATP, 0.25 mM lithium Co A and 0.5% v/v Triton X-100). Immediately after the addition of the luciferase buffer the plate is assayed for luciferase activity. Light emissions are detected on a Victor 1420 Multilabel counter (Wallac, Turku, Finland).
IL-4 mutants were compared with WT for their ability to support the proliferation of TF1.8 cells. Titration curves were performed for each of the mutants and the concentration needed to support 50% of cell growth was determined.

B1 and B2 are within 1.5-fold of each other in “Conc needed for 50% growth, average” value: 1.55 ng/mL for the first, 1.65 ng/mL for the second.

Compared with B3, B4 is 2.3-fold higher in “Conc needed for 50% growth, average” value: 0.6 ng/mL for the first, 1.36 ng/mL for the second.

Going from B5 to B6, the “Conc needed for 50% growth, average” value rises from 1.01 ng/mL to 1.69 ng/mL (1.7-fold).

With B7 the “Conc needed for 50% growth, average” value was 11.3 ng/mL.

Tested on: not listed separately
Assay: BIAcore binding of proteins to heparin immobilised on a biosensor chip
Conditions: IL-4 WT and mutants binding to heparin; in M-1s-1 (unit assumed)
From the text: This technology uses the optical phenomenon of surface plasmon resonance to monitor physical interactions between molecules. Passing the protein solution over a sensor surface to which the ligand is coupled monitors the real-time binding of proteins to an immobilized ligand. Detection is achieved by measuring refractive index changes very close to the sensor surface. When the refractive index is altered, the angle at which plasmon resonance occurs changes and this change directly correlates with the amount of protein interacting with the surface. A BIAcore 2000 is conveniently used. It is very sensitive and its microfluidics ensures that only small amounts of material are required.
The HLGAGs are immobilized on the biosensor chip. Intact HLGAGs are biotinylated via amino groups, or reducing termini modified with ammonia by reductive amination, using sulfo-NHS-biotin. Biotinylated HLGAGs are immobilized on streptavidin-coupled sensor chips. Solutions containing proteins of interest are injected over the sensor chip surface, and the binding is measured in real time (Fernig, In: Proteoglycan protocols, Ed. R.V. Iozzo, Humana Press, Totowa, N.J., USA, 2001). […] In all cases binding is specific, as there is little or no interaction with sensor chips lacking heparin with any of the targeted proteins, and binding is inhibited by exogenous heparin. Initial analyzes indicate that the binding of rhIL-5 to heparin has affinity constants of the order from 50-5×10^−9. Because unsubstituted amines are variably present in heparan sulfates from different tissues, an alternative method of biotin labeling is recommended for the heparan sulfate chip. In this case, heparan sulfate is labeled via oxidized cis-diol residues using biotinyl-LC-hydrazine. […]
Binding experiments with these proteins has indicated to which PECAM-1 domains heparin binds. Two binding assays were used: the assay where PECAM-1 is reacted with a BIAcore biosensor chip to which heparin has been immobilised and the second assay is the binding of PECAM-1 to heparan sulfate on the cell surface.
Site directed mutagenesis was performed on IL-4. Basic residues within the proposed heparin binding site were changed to alanine and the proteins expressed using the baculovirus expression system. The one exception was R88 which was changed to valine. Insect cell expressed proteins were purified on an anti-IL-4 affinity column and checked for purity by SDS-PAGE and silver staining. Mutant IL-4 proteins were examined for their ability to bind heparin immobilised on a biosensor chip and binding assessed using a BIAcore 2000.

Compared with B1, B2 is higher in ka: 6.42E+03 for the first, 9.82E+03 for the second.

Compared with B3, B4 is lower in ka: 5.03E+04 for the first, 4.86E+04 for the second.

Compared with B5, B6 is lower in ka: 5.13E+04 for the first, 1.26E+04 for the second.

In the case of B7, the ka is reported as 1.79E+04.

Same assay, conditions: IL-4 WT and mutants binding to heparin; in s-1 (unit assumed)

Compared with B1, B2 is lower in kd: 2.24E−03 for the first, 1.55E−03 for the second.

Compared with B3, B4 is lower in kd: 3.95E−03 for the first, 2.53E−03 for the second.

Compared with B5, B6 is higher in kd: 2.13E−03 for the first, 2.23E−03 for the second.

With B7 the kd was 3.08E−03.

Same assay, conditions: IL-4 WT and mutants binding to heparin; read-out: KD

Compared with B1, B2 is 2.2-fold lower in Kd: 349 nM for the first, 158 nM for the second. The second binds more tightly here.

First: B3
Second: B4
The Kd of the first is 1.5-fold higher: 78.5 nM for the first, 52.1 nM for the second. The second binds more tightly here.

Going from B5 to B6, the Kd rises from 41.5 nM to 176 nM (4.2-fold).

For B7, the Kd was 172 nM.
